Experimental data as given in patent publication EP4682166A1 (Guangzhou Enmai Biotechnology Co., Ltd, dated 2026).
Values belong to the binder of their own block, whether it stands above or below them.

Legend:
[1] = target: T1, NMI-flag overexpressed protein (293T cells transfected with the hNMI-flag plasmid) (human) (UniProt Q13287); test: sandwich ELISA; detection 94C4-1-biotin; cell supernatant of NMI-flag 293T, replicate 2
T1 sequence (looked up): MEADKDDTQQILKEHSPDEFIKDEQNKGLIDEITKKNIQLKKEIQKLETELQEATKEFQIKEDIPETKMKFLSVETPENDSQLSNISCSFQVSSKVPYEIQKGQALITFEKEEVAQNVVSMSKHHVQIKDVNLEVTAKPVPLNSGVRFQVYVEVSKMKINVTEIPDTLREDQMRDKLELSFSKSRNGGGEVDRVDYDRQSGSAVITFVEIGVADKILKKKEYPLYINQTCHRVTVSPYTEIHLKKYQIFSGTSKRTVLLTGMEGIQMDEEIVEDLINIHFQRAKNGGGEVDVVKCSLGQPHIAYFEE

[2] = target: T2, natural NMI in joint fluid of an arthritic patient (human) (UniProt Q13287); test: sandwich ELISA; detection 94C4-1-biotin 0.5µg/mL; joint fluid stock solution
T2 sequence (looked up): T1 sequence (looked up)

[3] = target: T1, NMI-flag overexpressed protein (293T cells transfected with the hNMI-flag plasmid) (human); test: sandwich ELISA; detection 94C4-1-biotin; cell lysates of NMI-flag 293T, replicate 1
[4] = target: T2, natural NMI in joint fluid of an arthritic patient (human); test: sandwich ELISA; detection 94C4-1-biotin 0.5µg/mL; joint fluid diluted 1/2
[5] = target: T3, human NMI (N-myc Interacting protein) (human) (UniProt Q13287); test: magnetic-bead chemiluminescent sandwich; capture 98G10 beads, detection acridinium-B-8 (2.0 mg B-8 labelled); hNMI 100 pg/mL
T3 sequence (looked up): T1 sequence (looked up)

[6] = target: T3, human NMI (N-myc Interacting protein) (human); test: magnetic-bead chemiluminescent sandwich; capture 98G10 beads, detection acridinium-B-8 (1.0 mg B-8 labelled); hNMI 400 pg/mL
[7] = target: T3, human NMI (N-myc Interacting protein) (human); test: magnetic-bead chemiluminescent sandwich; capture 98G10 beads, detection acridinium-B-8 (2.0 mg B-8 labelled); hNMI 400 pg/mL
[8] = target: T3, human NMI (N-myc Interacting protein) (human); test: magnetic-bead chemiluminescent sandwich; capture 98G10 beads (0.5 mg 98G10), detection acridinium-B-8; hNMI 2000 pg/ml
[9] = target: T3, human NMI (N-myc Interacting protein) (human); test: magnetic-bead chemiluminescent sandwich, kit of Example 8-1; capture 98G10 beads, detection acridinium-B-8; series 1, hNMI 14000 pg/mL
[10] = target: T3, human NMI (N-myc Interacting protein) (human); test: magnetic-bead chemiluminescent sandwich, kit of Example 8-1; capture 98G10 beads, detection acridinium-B-8; series 2, hNMI 3600 pg/mL
[11] = target: T3, human NMI (N-myc Interacting protein) (human); test: magnetic-bead chemiluminescent sandwich, kit of Example 8-1; capture 98G10 beads, detection acridinium-B-8; series 3, hNMI 1000 pg/mL
[12] = target: T3, human NMI (N-myc Interacting protein) (human); test: magnetic-bead chemiluminescent sandwich; capture 98G10 beads, detection acridinium-B-8 (2.0 mg B-8 labelled); hNMI 2000 pg/mL
[13] = target: T3, human NMI (N-myc Interacting protein) (human); test: magnetic-bead chemiluminescent sandwich, kit of Example 8-1; capture 98G10 beads, detection acridinium-B-8; series 1, hNMI 12000 pg/mL
[14] = target: T3, human NMI (N-myc Interacting protein) (human); test: magnetic-bead chemiluminescent sandwich, kit of Example 8-1; capture 98G10 beads, detection acridinium-B-8; series 1, hNMI 8000 pg/mL
[15] = target: T3, human NMI (N-myc Interacting protein) (human); test: magnetic-bead chemiluminescent sandwich; capture 98G10 beads (0.5 mg 98G10), detection acridinium-B-8; hNMI 100 pg/ml
[16] = target: T3, human NMI (N-myc Interacting protein) (human); test: magnetic-bead chemiluminescent sandwich; capture 98G10 beads (0.5 mg 98G10), detection acridinium-B-8; hNMI 50 pg/ml
[17] = target: T3, human NMI (N-myc Interacting protein) (human); test: magnetic-bead chemiluminescent sandwich; capture 98G10 beads (0.5 mg 98G10), detection acridinium-B-8; hNMI 400 pg/ml
[18] = target: T3, human NMI (N-myc Interacting protein) (human); test: magnetic-bead chemiluminescent sandwich; capture 98G10 beads (1.0 mg 98G10), detection acridinium-B-8; hNMI 2000 pg/ml
[19] = target: T3, human NMI (N-myc Interacting protein) (human); test: magnetic-bead chemiluminescent sandwich; capture 98G10 beads, detection acridinium-B-8 (2.0 mg B-8 labelled); hNMI 50 pg/mL
[20] = target: T3, human NMI (N-myc Interacting protein) (human); test: magnetic-bead chemiluminescent sandwich, kit of Example 8-1; capture 98G10 beads, detection acridinium-B-8; series 3, hNMI 10000 pg/mL
[21] = target: T3, human NMI (N-myc Interacting protein) (human); test: magnetic-bead chemiluminescent sandwich, kit of Example 8-1; capture 98G10 beads, detection acridinium-B-8; series 1, hNMI 4000 pg/mL
[22] = target: T3, human NMI (N-myc Interacting protein) (human); test: magnetic-bead chemiluminescent sandwich; capture 98G10 beads, detection acridinium-B-8 (1.0 mg B-8 labelled); hNMI 50 pg/mL
[23] = target: T3, human NMI (N-myc Interacting protein) (human); test: magnetic-bead chemiluminescent sandwich; capture 98G10 beads, detection acridinium-B-8 (1.0 mg B-8 labelled); hNMI 1000 pg/mL
[24] = target: T3, human NMI (N-myc Interacting protein) (human); test: magnetic-bead chemiluminescent sandwich, kit of Example 8-1; capture 98G10 beads, detection acridinium-B-8; series 2, hNMI 900 pg/mL
[25] = target: T3, human NMI (N-myc Interacting protein) (human); test: magnetic-bead chemiluminescent sandwich, kit of Example 8-1; capture 98G10 beads, detection acridinium-B-8; series 1, hNMI 50 pg/mL

OD450 [1]: 0.95 OD450 | OD450 [2]: 0.221 OD450 | OD450 [3]: 3.03 OD450 | OD450 [4]: 0.128 OD450
B1: monoclonal antibody B-8 (antibody, V domains shown)
VH: QSLEESGGDLVKPGASLTLTCTASGFSFSSSYYMCWVRQAPGKGLEWIACIYAGSSGSTYYASWAKGRFTISKTSSTTVTLQMTSLTAADTATYFCAREYSYDDYGDFWGFNLWGPGTLVTVSS
VL: ALVMTQTPSSVSAAVGGTVTINCQASQNIYTNLAWYQQKPGQPPKLLIYGASNLESGVPSRFKGSGSGTEYTLTISDLECDDAATYYCQSSLYSRIADRANAFGGGTEVVVK
notes: Rabbit monoclonal antibody; also called B8-1

Signal value [5]: 11900 | Signal value [6]: 39900 | Signal value [7]: 44600 | Signal value [8]: 204000 | Signal value [9]: 1.05e+06 | Signal value [10]: 408000 | Signal value [11]: 131000 | Signal value [12]: 234000 | Signal value [13]: 894000 | Signal value [14]: 587000 | Signal value [15]: 9490 | Signal value [16]: 4560 | Signal value [17]: 39900 | Signal value [18]: 397000 | Signal value [19]: 6220 | Signal value [20]: 1.48e+06 | Signal value [21]: 258000 | Signal value [22]: 4560 | Signal value [23]: 97600 | Signal value [24]: 98500 | Signal value [25]: 2010
B2: acridinium ester-labeled monoclonal antibody B-8 (antibody, V domains shown)
VH: B1 VH
VL: B1 VL
modifications: acridinium ester label on the antibody, site not stated
